Target: human secretory immunoglobulin A (SIgA) (human) (UniProt P01833)
Experiment: SPR

UniProt P01833, sequence (P01833 whole entry, looked up): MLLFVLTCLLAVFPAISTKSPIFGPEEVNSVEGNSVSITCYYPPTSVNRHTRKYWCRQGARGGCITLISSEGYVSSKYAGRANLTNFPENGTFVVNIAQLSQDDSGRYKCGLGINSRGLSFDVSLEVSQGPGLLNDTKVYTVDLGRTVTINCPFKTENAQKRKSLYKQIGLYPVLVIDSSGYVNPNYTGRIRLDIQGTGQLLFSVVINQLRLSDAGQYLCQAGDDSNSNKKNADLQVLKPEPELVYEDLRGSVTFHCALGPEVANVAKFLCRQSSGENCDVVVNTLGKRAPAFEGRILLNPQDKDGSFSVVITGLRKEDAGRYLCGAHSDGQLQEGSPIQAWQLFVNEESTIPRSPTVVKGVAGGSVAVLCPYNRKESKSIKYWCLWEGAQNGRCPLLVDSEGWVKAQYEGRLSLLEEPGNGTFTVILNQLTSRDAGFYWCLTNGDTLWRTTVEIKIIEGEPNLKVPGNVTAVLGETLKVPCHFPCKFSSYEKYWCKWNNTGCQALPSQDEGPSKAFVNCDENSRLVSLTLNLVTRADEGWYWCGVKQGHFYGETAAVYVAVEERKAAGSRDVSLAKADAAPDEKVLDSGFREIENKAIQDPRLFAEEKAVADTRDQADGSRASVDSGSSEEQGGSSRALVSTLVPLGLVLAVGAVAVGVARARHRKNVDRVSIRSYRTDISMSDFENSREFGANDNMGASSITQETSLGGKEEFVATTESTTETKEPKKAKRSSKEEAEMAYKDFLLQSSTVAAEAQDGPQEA

EsiB (E. coli secretory immunoglobulin A-binding protein), recombinant, without signal peptide (natural protein)
Kd: 30.2 µM | koff: 0.042 s⁻¹ | kon: 1390 M⁻¹ s⁻¹

From PMC3735183
